Data on 13 molecules can be found in US20240018251A1 (BIOHENG THERAPEUTICS, published 2024).

T1: FITC labeled BCMA (acrobiosystem, Cat. No. BCA-HF254) (UniProt Q02223 1-54, FITC labeled (site not stated))
T1 construct: Soluble labeled protein used to stain CAR-T cells; also called BCMA antigen protein; BCMA protein
T1 sequence (looked up): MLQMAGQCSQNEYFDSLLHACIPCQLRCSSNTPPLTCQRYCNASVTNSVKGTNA

B1: chimeric antigen receptor comprising humanized anti-BCMA single domain antibody BH60_V3, on CAR-T cells (other)
chain: EVQLVESGGGLVQPGGSLRLSCVVSGGIFTINDMAWVRQAPGKGLEWVAHISRSGSTYYRDSVKGRFTISRDNAKNSLYLQMNSLRAEDTAVYYCNSIDRPLSYGQGTLVTVSSTTTPAPRPPTPAPTIASQPLSLRPEACRPAAGGAVHTRGLDFACDIYIWAPLAGTCGVLLLSLVITLYCKRGRKKLLYIFKQPFMRPVQTTQEEDGCSCRFPEEEEGGCELRVKFSRSADAPAYQQGQNQLYNELNLGRREEYDVLDKRRGRDPEMGGKPRRKNPQEGLYNELQKDKMAEAYSEIGMKGERRRGKGHDGLYQGLSTATKDTYDALHMQALPPR
B2: chimeric antigen receptor comprising humanized anti-BCMA single domain antibody BH86_V2, on CAR-T cells (other)
chain: EVQLVESGGGLVKPGGSLRLSCAASGRAISSIVMAWVRQAPGKGLEWVASINRWGGTPYYSAPVKGRFTISRDDSKNTLYLQMNSLKTEDTAVYYCAAASTLDSGYDYWGQGTLVTVSSTTTPAPRPPTPAPTIASQPLSLRPEACRPAAGGAVHTRGLDFACDIYIWAPLAGTCGVLLLSLVITLYCKRGRKKLLYIFKQPFMRPVQTTQEEDGCSCRFPEEEEGGCELRVKFSRSADAPAYQQGQNQLYNELNLGRREEYDVLDKRRGRDPEMGGKPRRKNPQEGLYNELQKDKMAEAYSEIGMKGERRRGKGHDGLYQGLSTATKDTYDALHMQALPPR
B3: chimeric antigen receptor comprising humanized anti-BCMA single domain antibody BH86_V1, on CAR-T cells (other)
chain: QVQLVESGGGLVQAGESLRLSCAASGRAISSIVMAWWRQTPGAEREFVASINRWGGTPYYSDSVKGRFTISRDNSKNTLYLQMNSLRAEDTAVYYCAAASTLDSGYDYWGQGTLVTVSTTTPAPRPPTPAPTIASQPLSLRPEACRPAAGGAVHTRGLDFACDIYIWAPLAGTCGVLLLSLVITLYCKRGRKKLLYIFKQPFMRPVQTTQEEDGCSCRFPEEEEGGCELRVKFSRSADAPAYQQGQNQLYNELNLGRREEYDVLDKRRGRDPEMGGKPRRKNPQEGLYNELQKDKMAEAYSEIGMKGERRRGKGHDGLYQGLSTATKDTYDALHMQALPPR
B4: chimeric antigen receptor comprising humanized anti-BCMA single domain antibody BH86_GKV3, on CAR-T cells (other)
chain: QEVLVESGGGLVQPGGSLRLSCAASGRAISSIVMAWWRQTPGAEREFVASINRWGGTPYYSDSVKGRFTISRDHAKNTLYLQMNSLKSADTAVYYCAAASTLDSGYDYWGQGTQVTVSTTTPAPRPPTPAPTIASQPLSLRPEACRPAAGGAVHTRGLDFACDIYIWAPLAGTCGVLLLSLVITLYCKRGRKKLLYIFKQPFMRPVQTTQEEDGCSCRFPEEEEGGCELRVKFSRSADAPAYQQGQNQLYNELNLGRREEYDVLDKRRGRDPEMGGKPRRKNPQEGLYNELQKDKMAEAYSEIGMKGERRRGKGHDGLYQGLSTATKDTYDALHMQALPPR
B5: chimeric antigen receptor comprising humanized anti-BCMA single domain antibody BH86_GKV2, on CAR-T cells (other)
chain: QEVLVESGGGLVQPGGSLRLSCAASGRAISSIVMAWWRQTPGAEREFVASINRWGGTPYYSDSVKGRFTISRDHAKNTLYLQMNSLKSADTAVYYCAAASTLDSGYDYWGPGTQVTVSTTTPAPRPPTPAPTIASQPLSLRPEACRPAAGGAVHTRGLDFACDIYIWAPLAGTCGVLLLSLVITLYCKRGRKKLLYIFKQPFMRPVQTTQEEDGCSCRFPEEEEGGCELRVKFSRSADAPAYQQGQNQLYNELNLGRREEYDVLDKRRGRDPEMGGKPRRKNPQEGLYNELQKDKMAEAYSEIGMKGERRRGKGHDGLYQGLSTATKDTYDALHMQALPPR
B6: chimeric antigen receptor comprising humanized anti-BCMA single domain antibody BH86_V6, on CAR-T cells (other)
chain: QVQLVESGGGLVQAGESLRLSCAASGRAISSIVMAWWRQTPGAEREFVASINRWGGTPYYSNSVKGRFAISRDNSKNTIHLQMNSLRSEDTAVYYCAAASTLDSGYDYWGHGTLVTVSTTTPAPRPPTPAPTIASQPLSLRPEACRPAAGGAVHTRGLDFACDIYIWAPLAGTCGVLLLSLVITLYCKRGRKKLLYIFKQPFMRPVQTTQEEDGCSCRFPEEEEGGCELRVKFSRSADAPAYQQGQNQLYNELNLGRREEYDVLDKRRGRDPEMGGKPRRKNPQEGLYNELQKDKMAEAYSEIGMKGERRRGKGHDGLYQGLSTATKDTYDALHMQALPPR
B7: chimeric antigen receptor comprising humanized anti-BCMA single domain antibody BH86_V4, on CAR-T cells (other)
chain: QVQLVESGGGLVQAGESLRLSCAASGRAISSIVMAWWRQTPGAEREFVASINRWGGTPYYSDSVKGRFTISRDNSKNTLYLQMNSLRAEDTAVYYCAAASTLDSGYDYWGHGTLVTVSTTTPAPRPPTPAPTIASQPLSLRPEACRPAAGGAVHTRGLDFACDIYIWAPLAGTCGVLLLSLVITLYCKRGRKKLLYIFKQPFMRPVQTTQEEDGCSCRFPEEEEGGCELRVKFSRSADAPAYQQGQNQLYNELNLGRREEYDVLDKRRGRDPEMGGKPRRKNPQEGLYNELQKDKMAEAYSEIGMKGERRRGKGHDGLYQGLSTATKDTYDALHMQALPPR
B8: chimeric antigen receptor comprising humanized anti-BCMA single domain antibody BH86_GKV1, on CAR-T cells (other)
chain: QEVLVESGGGLVQPGGSLRLSCAASGRAISSIVMAWWRQTPGAEREFVASINRWGGTPYYSDSVKGRFTISRDHAKNTLYLQMNSLRAEDTAVYYCAAASTLDSGYDYWGHGTQVTVSTTTPAPRPPTPAPTIASQPLSLRPEACRPAAGGAVHTRGLDFACDIYIWAPLAGTCGVLLLSLVITLYCKRGRKKLLYIFKQPFMRPVQTTQEEDGCSCRFPEEEEGGCELRVKFSRSADAPAYQQGQNQLYNELNLGRREEYDVLDKRRGRDPEMGGKPRRKNPQEGLYNELQKDKMAEAYSEIGMKGERRRGKGHDGLYQGLSTATKDTYDALHMQALPPR
B9: chimeric antigen receptor comprising humanized anti-BCMA single domain antibody BH60_V1, on CAR-T cells (other)
chain: QVQLVESGGGLVQPGGSLRLSCAVSGGIFTINDMAWFRQAPGKQRELVAHISRSGSTYYRDSVKGRFTISRDNSKNTLYLQMNSLRAEDTATYYCNSIDRPLSYGQGTLVTVSTTTPAPRPPTPAPTIASQPLSLRPEACRPAAGGAVHTRGLDFACDIYIWAPLAGTCGVLLLSLVITLYCKRGRKKLLYIFKQPFMRPVQTTQEEDGCSCRFPEEEEGGCELRVKFSRSADAPAYQQGQNQLYNELNLGRREEYDVLDKRRGRDPEMGGKPRRKNPQEGLYNELQKDKMAEAYSEIGMKGERRRGKGHDGLYQGLSTATKDTYDALHMQALPPR
B10: chimeric antigen receptor comprising humanized anti-BCMA single domain antibody BH60_V6, on CAR-T cells (other)
chain: QVQLVESGGGLVQPGGSLRLSCVVSGGIFTINDMAWFRQAPGKQRELVAHISRSGSTYYRDFVKGRFTISRDNSKNTSYLQMNNLRAEDTATYYCNSIDRPLSYGQGTLVTVSTTTPAPRPPTPAPTIASQPLSLRPEACRPAAGGAVHTRGLDFACDIYIWAPLAGTCGVLLLSLVITLYCKRGRKKLLYIFKQPFMRPVQTTQEEDGCSCRFPEEEEGGCELRVKFSRSADAPAYQQGQNQLYNELNLGRREEYDVLDKRRGRDPEMGGKPRRKNPQEGLYNELQKDKMAEAYSEIGMKGERRRGKGHDGLYQGLSTATKDTYDALHMQALPPR
B11: chimeric antigen receptor comprising humanized anti-BCMA single domain antibody BH60_V5, on CAR-T cells (other)
chain: QVQLVESGGGLVQPGGSLRLSCVVSGGIFTINDMAWFRQAPGKQRELVAHISRSGSTYYRDFVKGRFTISRDNSKNTLYLQMNSLRAEDTATYYCNSIDRPLSYGQGTLVTVSTTTPAPRPPTPAPTIASQPLSLRPEACRPAAGGAVHTRGLDFACDIYIWAPLAGTCGVLLLSLVITLYCKRGRKKLLYIFKQPFMRPVQTTQEEDGCSCRFPEEEEGGCELRVKFSRSADAPAYQQGQNQLYNELNLGRREEYDVLDKRRGRDPEMGGKPRRKNPQEGLYNELQKDKMAEAYSEIGMKGERRRGKGHDGLYQGLSTATKDTYDALHMQALPPR
B12: chimeric antigen receptor comprising humanized anti-BCMA single domain antibody BH60_GKV2, on CAR-T cells (other)
chain: QVQLVESGGGLVQPGGSLRLSCAASGGIFTINDMAWFRQAPGKQRELVAHISRSGSTYYRDSVKGRFTISRDNAKNSLYLQMNSLRAEDTAVYYCNSIDRPLSYGQGTQVTVSTTTPAPRPPTPAPTIASQPLSLRPEACRPAAGGAVHTRGLDFACDIYIWAPLAGTCGVLLLSLVITLYCKRGRKKLLYIFKQPFMRPVQTTQEEDGCSCRFPEEEEGGCELRVKFSRSADAPAYQQGQNQLYNELNLGRREEYDVLDKRRGRDPEMGGKPRRKNPQEGLYNELQKDKMAEAYSEIGMKGERRRGKGHDGLYQGLSTATKDTYDALHMQALPPR
B13: chimeric antigen receptor comprising humanized anti-BCMA single domain antibody BH60_GKV1, on CAR-T cells (other)
chain: QVQLVESGGGLVQPGGSLRLSCVASGGIFTINDMAWFRQAPGKQRELVAHISRSGSTYYRDSVKGRFTISRDNAKNSLYLQMNSLRAEDTAVYYCNSIDRPLSYGQGTLVTVSTTTPAPRPPTPAPTIASQPLSLRPEACRPAAGGAVHTRGLDFACDIYIWAPLAGTCGVLLLSLVITLYCKRGRKKLLYIFKQPFMRPVQTTQEEDGCSCRFPEEEEGGCELRVKFSRSADAPAYQQGQNQLYNELNLGRREEYDVLDKRRGRDPEMGGKPRRKNPQEGLYNELQKDKMAEAYSEIGMKGERRRGKGHDGLYQGLSTATKDTYDALHMQALPPR

The experiment has as its target T1, FITC labeled BCMA (acrobiosystem, Cat. …). The experiment can be described thus: flow cytometry, CAR-T cells stained with FITC labeled BCMA. On the procedure:
After culturing at 37° C. and 5% CO₂ for 10 days, FITC labeled BCMA (acrobiosystem, Cat. No. BCA-HF254) was used for binding specific staining, and the ability of the corresponding CAR-T cells to specifically bind to the BCMA antigen protein was detected by flow cytometry, which also reflected the expression level of the CAR molecule.
Take B1: the binding result is “binds”.
For the molecule B2, the binding result is “binds”.
Under B3 stands “binds”.
Take B4: the binding result is listed as “binds”.
Under B5 stands “binds”; under B6, “binds”.
The result for B7 reads “binds”.
On to B8, for which the binding result is “binds”.
Consider B9, for which the binding result was “binds”.
For B10, the binding result is reported as “binds”.
Turning to B11, the binding result is “binds”.
The result for B12 reads “binds”.
The result for B13 reads “binds”.
